Assay results: patent US20080274967
Changes are numbered by the printed parent chain.

Columns and labels:
[1] = target: T1, PEDF purified from human plasma (plPEDF)
T1 chain: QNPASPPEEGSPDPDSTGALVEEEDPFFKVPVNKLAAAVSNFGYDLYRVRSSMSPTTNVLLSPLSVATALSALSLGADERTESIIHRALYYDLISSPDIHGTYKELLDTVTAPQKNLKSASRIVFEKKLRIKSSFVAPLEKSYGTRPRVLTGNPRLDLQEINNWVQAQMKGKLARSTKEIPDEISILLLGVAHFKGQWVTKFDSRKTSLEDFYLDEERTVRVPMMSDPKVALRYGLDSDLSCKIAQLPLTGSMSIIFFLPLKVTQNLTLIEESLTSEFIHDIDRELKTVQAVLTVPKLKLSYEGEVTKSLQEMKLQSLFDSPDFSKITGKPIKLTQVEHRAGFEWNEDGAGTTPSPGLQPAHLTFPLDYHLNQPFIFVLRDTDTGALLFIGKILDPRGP

[2] = target: T2, PEDF EEE variant (S24,114, 227E)
T2 chain: T1 chain with S5E, S95E, S208E

[3] = target: T3, PEDF S227A variant
T3 chain: T1 chain with S208A

[4] = target: T4, PEDF S227E variant
T4 chain: T1 chain with S208E

[5] = target: T5, PEDF AAE variant (S24,114A, 227E)
T5 chain: T1 chain with S5A, S95A, S208E

[6] = target: T6, PEDF AAA variant (S24,114, 227A)
T6 chain: T1 chain with S5A, S95A, S208A

[7] = target: T7, PEDF EEA variant (S24,114E, 227A)
T7 chain: T1 chain with S5E, S95E, S208A

[8] = target: T8, Recombinant human pigment epithelium derived factor (rPEDF)
T8 chain: T1 chain

B1: Recombinant human CK2 (casein kinase CK2) (protein)
chain: MSGPVPSRARVYTDVNTHRPREYWDYESHVVEWGNQDDYQLVRKLGRGKYSEVFEAINITNNEKVVVKILKPVKKKKIKREIKILENLRGGPNIITLADIVKDPVSRTPALVFEHVNNTDFKQLYQTLTDYDIRFYMYEILKALDYCHSMGIMHRDVKPHNVMIDHEHRKLRLIDWGLAEFYHPGQEYNVRVASRYFKGPELLVDYQMYDYSLDMWSLGCMLASMIFRKEPFFHGHDNYDQLVRIAKVLGTEDLYDYIDKYNIELDPRFNDILGRHSRKRWERFVHSENQHLVSPEALDFLDKLLRYDHQSRLTAREAMEHPYFYTVVKDQARMGSSSMPGGSTPVSSANMMSGISSVPTPSPLGPLAGSPVIAAANPLGMPVPAAAGAQQ
in vitro phosphorylation by CK2 ([γ32P]-ATP, SDS-PAGE, autoradiography) [1]: the phosphorylation of the plPEDF by CK2 was significantly lower than CK2 phosphorylation of the rPEDF | in vitro phosphorylation by CK2 [2]: the triple mutants EEE and EEA were readily phosphorylated by CK2 | in vitro phosphorylation by CK2 ([γ32P]-ATP, SDS-PAGE, autoradiography) [3]: both readily phosphorylated by CK2 | in vitro phosphorylation by CK2 ([γ32P]-ATP, SDS-PAGE, autoradiography) [4]: both readily phosphorylated by CK2 | in vitro phosphorylation by CK2 [5]: The AAE and the AAA variants almost completely abolished CK2 phosphorylation | in vitro phosphorylation by CK2 [6]: The AAE and the AAA variants almost completely abolished CK2 phosphorylation | in vitro phosphorylation by CK2 [7]: the triple mutants EEE and EEA were readily phosphorylated by CK2 | in vitro phosphorylation by CK2 ([γ32P]-ATP, SDS-PAGE, autoradiography) [8]: the phosphorylation of the plPEDF by CK2 was significantly lower than CK2 phosphorylation of the rPEDF
